# Experiments:
# HeLa Kyoto [1] = experiment: solubility change mitosis vs G1/S (difference of NP-40 vs SDS log2 ratios) (log2 ratio difference); higher = more soluble in mitosis
# HeLa Kyoto [2] = experiment: thermal stability score vs G1/S (z-score of summed log2 fold changes over temperatures); higher = more thermally stable than in G1/S
# HeLa Kyoto [3] = experiment: melting temperature (median over replicates), in situ; higher = more thermally stable
# HeLa Kyoto [4] = experiment: solubility in G1/S (NP-40 vs SDS abundance) (log2 ratio); higher = more soluble; details: cell cycle stage: G1/S
# [5] = cell cycle stage: early G1 (4.5 h after nocodazole release)
# 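Wherever melting temperature (median over replicates), in situ is given: HeLa Kyoto cells synchronized by double thymidine or nocodazole block, proteins quantified by TMT10plex mass spectrometry, three independent biological replicates.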
# 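Wherever solubility change mitosis vs G1/S (difference of NP-40 vs SDS log2 ratios) is given: synchronized HeLa Kyoto cells (double thymidine block for G1/S, nocodazole release for mitosis), protein amounts in NP-40 versus SDS lysates quantified by mass spectrometry, three biological replicates.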
# 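Wherever solubility in G1/S (NP-40 vs SDS abundance) is given: HeLa Kyoto cells arrested at G1/S by double thymidine block, proteins quantified by TMT10plex mass spectrometry in mild NP-40 versus SDS extracts, three biological replicates.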
# 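Wherever thermal stability score vs G1/S (z-score of summed log2 fold changes over temperatures) is given: synchronized HeLa Kyoto cells, proteins quantified by TMT10plex mass spectrometry, three biological replicates, mitosis taken 0.5 h after nocodazole release, G1/S directly after double thymidine block.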
Sequence,solubility change mitosis (log2) (HeLa Kyoto [1]),thermal stability score (HeLa Kyoto [2]; [5]),thermal stability score (HeLa Kyoto [2]; cell cycle stage: mitosis),melting temperature (HeLa Kyoto [3]; cell cycle stage: G1/S),melting temperature (HeLa Kyoto [3]; cell cycle stage: mitosis),solubility in G1/S (log2) (HeLa Kyoto [4])
MEGGGGRDEPSACRAGDVNMDDPKKEDILLLADEKFDFDLSLSSSSANEDDEVFFGPFGHKERCIAASLELNNPVPEQPPLPTSESPFAWSPLAGEKFVEVYKEAHLLALHIESSSRNQAAQAAKPEDPRSQGVERFIQESKLKINLFEKEKEMKKSPTSLKRETYYLSDSPLLGPPVGEPRLLASSPALPSSGAQARLTRAPGPPHSAHALPRESCTAHAASQAATQRKPGTKLLLPRAASVRGRSIPGAAEKPKKEIPASPSRTKIPAEKESHRDVLPDKPAPGAVNVPAAGSHLGQGKRAIPVPNKLGLKKTLLKAPGSTSNLARKSSSGPVWSGASSACTSPAVGKAKSSEFASIPANSSRPLSNISKSGRMGPAMLRPALPAGPVGASSWQAKRVDVSELAAEQLTAPPSASPTQPQTPEGGGQWLNSSCAWSESSQLNKTRSIRRRDSCLNSKTKVMPTPTNQFKIPKFSIGDSPDSSTPKLSRAQRPQSCTSVGRVTVHSTPVRRSSGPAPQSLLSAWRVSALPTPASRRCSGLPPMTPKTMPRAVGSPLCVPARRRSSEPRKNSAMRTEPTRESNRKTDSRLVDVSPDRGSPPSRVPQALNFSPEESDSTFSKSTATEVAREEAKPGGDAAPSEALLVDIKLEPLAVTPDAASQPLIDLPLIDFCDTPEAHVAVGSESRPLIDLMTNTPDMNKNVAKPSPVVGQLIDLSSPLIQLSPEADKENVDSPLLKF [GTSE1],0.505,0.104,-0.0609,49 °C,50.3 °C,0.351
MEGGGGSGNKTTGGLAGFFGAGGAGYSHADLAGVPLTGMNPLSPYLNVDPRYLVQDTDEFILPTGANKTRGRFELAFFTIGGCCMTGAAFGAMNGLRLGLKETQNMAWSKPRNVQILNMVTRQGALWANTLGSLALLYSAFGVIIEKTRGAEDDLNTVAAGTMTGMLYKCTGGLRGIARGGLTGLTLTSLYALYNNWEHMKGSLLQQSL [TIMM23],-0.145,-1.18,-2.03,57.3 °C,55.6 °C,0.455
MEGGLGRAVCLLTGASRGFGRTLAPLLASLLSPGSVLVLSARNDEALRQLEAELGAERSGLRVVRVPADLGAEAGLQQLLGALRELPRPKGLQRLLLINNAGSLGDVSKGFVDLSDSTQVNNYWALNLTSMLCLTSSVLKAFPDSPGLNRTVVNISSLCALQPFKGWALYCAGKAARDMLFQVLALEEPNVRVLNYAPGPLDTDMQQLARETSVDPDMRKGLQELKAKGKLVDCKVSAQKLLSLLEKDEFKSGAHVDFYDK [SPR],-0.117,-5.72,-2.25,53.8 °C,52.3 °C,0.0864
MEGISNFKTPSKLSEKKKSVLCSTPTINIPASPFMQKLGFGTGVNVYLMKRSPRGLSHSPWAVKKINPICNDHYRSVYQKRLMDEAKILKSLHHPNIVGYRAFTEANDGSLCLAMEYGGEKSLNDLIEERYKASQDPFPAAIILKVALNMARGLKYLHQEKKLLHGDIKSSNVVIKGDFETIKICDVGVSLPLDENMTVTDPEACYIGTEPWKPKEAVEENGVITDKADIFAFGLTLWEMMTLSIPHINLSNDDDDEDKTFDESDFDDEAYYAALGTRPPINMEELDESYQKVIELFSVCTNEDPKDRPSAAHIVEALETDV [PBK],0.0797,1.05,3.4,47.7 °C,47.6 °C,0.0996
MEGPGLGSQCRNHSHGPHPPGFGRYGICAHENKELANAREALPLIEDSSNCDIVKATQYGIFERCKELVEAGYDVRQPDKENVSLLHWAAINNRLDLVKFYISKGAVVDQLGGDLNSTPLHWAIRQGHLPMVILLLQHGADPTLIDGEGFSSIHLAVLFQHMPIIAYLISKGQSVNMTDVNGQTPLMLSAHKVIGPEPTGFLLKFNPSLNVVDKIHQNTPLHWAVAAGNVNAVDKLLEAGSSLDIQNVKGETPLDMALQNKNQLIIHMLKTEAKMRANQKFRLWRWLQKCELFLLLMLSVITMWAIGYILDFNSDSWLLKGCLLVTLFFLTSLFPRFLVGYKNLVYLPTAFLLSSVFWIFMTWFILFFPDLAGAPFYFSFIFSIVAFLYFFYKTWATDPGFTKASEEEKKVNIITLAETGSLDFRTFCTSCLIRKPLRSLHCHVCNCCVARYDQHCLWTGRCIGFGNHHYYIFFLFFLSMVCGWIIYGSFIYLSSHCATTFKEDGLWTYLNQIVACSPWVLYILMLATFHFSWSTFLLLNQLFQIAFLGLTSHERISLQKQSKHMKQTLSLRKTPYNLGFMQNLADFFQCGCFGLVKPCVVDWTSQYTMVFHPAREKVLRSV [ZDHHC13],-0.158,-0.948,-1.02,51.6 °C,51.4 °C,0.0826
